The record followed here is publication PMC11272584 (Nature Metabolism, 2024).

Residue numbers refer to the chain shown, from its start.

One assay concerns the target T1, GIPR E461* (human) (UniProt P48546).
T1 sequence: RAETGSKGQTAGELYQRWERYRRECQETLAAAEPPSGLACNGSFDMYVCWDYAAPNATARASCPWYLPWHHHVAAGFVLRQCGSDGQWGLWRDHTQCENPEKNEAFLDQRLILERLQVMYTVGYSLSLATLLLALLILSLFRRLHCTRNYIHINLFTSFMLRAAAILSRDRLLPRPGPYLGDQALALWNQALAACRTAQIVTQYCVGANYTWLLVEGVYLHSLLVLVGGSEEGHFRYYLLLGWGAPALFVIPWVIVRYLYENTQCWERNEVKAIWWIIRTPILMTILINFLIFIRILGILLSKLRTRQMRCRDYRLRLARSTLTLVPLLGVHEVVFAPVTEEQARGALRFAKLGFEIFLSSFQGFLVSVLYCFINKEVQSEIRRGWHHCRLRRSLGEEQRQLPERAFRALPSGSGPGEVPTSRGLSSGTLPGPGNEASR

For the next assay, the target named is T2, GIPR G449A (human) (UniProt P48546).
T2 sequence: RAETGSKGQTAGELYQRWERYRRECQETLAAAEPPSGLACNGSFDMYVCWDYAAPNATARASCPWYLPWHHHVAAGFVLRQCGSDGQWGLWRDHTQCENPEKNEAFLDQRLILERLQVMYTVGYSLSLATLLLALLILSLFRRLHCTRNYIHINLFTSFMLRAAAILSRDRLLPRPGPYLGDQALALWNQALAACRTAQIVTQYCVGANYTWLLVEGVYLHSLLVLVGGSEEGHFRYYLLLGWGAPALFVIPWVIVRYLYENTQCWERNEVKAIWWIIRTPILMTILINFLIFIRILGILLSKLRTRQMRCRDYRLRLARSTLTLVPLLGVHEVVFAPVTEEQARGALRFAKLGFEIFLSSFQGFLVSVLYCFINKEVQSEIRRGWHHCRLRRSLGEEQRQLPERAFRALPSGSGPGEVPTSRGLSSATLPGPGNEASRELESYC

Another assay concerns the target T3, GIPR I299V (human) (UniProt P48546).
T3 sequence: T2 sequence with I278V, A428G

The target in the next assay is T4, GIPR R38L (human) (UniProt P48546).
T4 sequence: T2 sequence with R17L, A428G

The target of the next assay is T5, GIPR S382T (human) (UniProt P48546).
T5 sequence: T2 sequence with S361T, A428G

In a further assay the target is T6, GIPR Y73H (human) (UniProt P48546).
T6 sequence: T2 sequence with Y52H, A428G

With “β-arrestin 2 (Rluc8-Arrestin-3-Sp1) (from UniProt P32121 1-409) (natural protein)”, the β-arrestin 2 recruitment (BRET) on stimulation with GIP(1-42): logEC50 (Arrestin) (log M (inferred)) is -9.17 with GIPR E461* (human); -9.24 with GIPR G449A (human); -9.01 with GIPR I299V (human); -9 with GIPR R38L (human); -9.39 with GIPR S382T (human); -9.11 with GIPR Y73H (human).
